From US6395526B1, “DNA polymerase” (Takara Shuzo Co., Ltd., priority 1995, dated 2002)

How the values were obtained:
λ-DNA = conditions: reported, enzyme used alone; cited from earlier work
[1] = test system: substrate DNA (template-primer); test: DNA polymerase activity on different forms of substrate DNA (template-primer); format: biochemical
Procedure: The DNA polymerase activity was assayed using calf thymus DNA (manufactured by Worthington) activated by DNase I treatment (activated DNA) as a substrate. DNA activation and assay of DNA polymerase activity were carried out by the method described in DNA Polymerase from Escherichia coli, 263-276 (authored by C. C. Richardson), published by Harper & Row, edited by D. R. Davis.
An assay of enzyme activity was carried out by the following method. Specifically, 50 μl of a reaction solution [20 mM Tris-HCl (pH 7.7), 15 mM MgCl2, 2 mM 2-mercaptoethanol, 0.2 mg/ml activated DNA, 40 μM each of dATP, dCTP, dGTP and dTTP, 60 nM [^3H]-dTTP (manufactured by Amersham)], containing a sample for assaying its activity, was prepared and reacted at 75° C. for 15 minutes. A 40 μl portion of this reaction mixture was then spotted onto a DE paper (manufactured by Whatman) and washed with 5% Na2HPO4 five times. The remaining radioactivity on the DE paper was assayed using a liquid scintillation counter. The amount of enzyme which incorporated 10 nmol of [^3H]-dTMP per 30 minutes into the substrate DNA, assayed by the above-described enzyme activity assay method, was defined as one unit of the enzyme.
Next, in order to compare the selectivity of the DNA polymerase of the present invention for different forms of substrate DNA, the following template-primer was examined. Aside from the activated DNA used for conventional assay of the activity, those prepared as substrates include a thermal-denatured DNA prepared by treating the activated DNA at 85° C. for 5 minutes; M13-HT Primer prepared by annealing a 45-base synthetic deoxyribooligonucleotide of the sequence as shown by SEQ ID NO:6 in Sequence Listing as a primer to the M13 phage single stranded DNA (M13mp18 ssDNA, manufactured by Takara Shuzo Co., Ltd.); M13-RNA Primer prepared by annealing a 17-base synthetic ribooligonucleotide of the sequence as shown by SEQ ID NO:7 in Sequence Listing as a primer to the same M13 phage single stranded DNA; Poly dA-Oligo dT prepared by mixing polydeoxyadenosine (Poly dA, manufactured by Pharmacia) and oligodeoxythymidine (Oligo dT, manufactured by Pharmacia) in a 20:1 molar ratio; and Poly A-Oligo dT prepared by mixing polyadenosine (Poly A, manufactured by Pharmacia) and oligodeoxythymidine in a 20:1 molar ratio.
The DNA polymerase activity was assayed using these substrates in place of the activated DNA. The relative activity of each substrate when the activity obtained in the case of using an activated DNA as a substrate is defined as 100 is shown in Table 1. For comparison, the Pfu DNA polymerase and the Taq DNA polymerase derived from Thermus aquaticus (TaKaRa Taq, manufactured by Takara Shuzo Co., Ltd.) were also examined in the same manner.

M13-HT Primer = test: Primer extension reaction (autoradiogram, FIG. 6); format: biochemical; conditions: activated DNA added in great excess
Procedure: The primer extension activity was further investigated extensively. The M13-HT Primer, previously labeled with [γ-^32P]-ATP (manufactured by Amersham) and T4 polynucleotide kinase (manufactured by Takara Shuzo Co., Ltd.) at the 5′-end, was used as a substrate. Ten microliters of a reaction mixture [20 mM Tris-HCl (pH 7.7), 15 mM MgCl2, 2 mM 2-mercaptoethanol, 270 μM each of dATP, dGTP, dCTP and dTTP] containing the above substrate in a final concentration of […] and various DNA polymerases in amounts providing 0.05 units of activity as assayed with the activated DNA as a substrate was reacted at 75° C. for 1, 2, 3, or 4 minutes. After termination of the reaction, 2 μl of a reaction stop solution (95% […], 20 mM EDTA, 0.05% bromophenol blue, 0.05% xylenecyanol) was added, subjected to thermal denaturation treatment at 95° C. for 3 minutes. Two microliters of the reaction mixture was then subjected to electrophoresis using polyacrylamide gel containing 8 M urea and subsequently subjected to a preparation of autoradiogram. Also, in order to examine the extension activity in the presence of the activated DNA as a competitor substrate, the activated DNA was added to the above reaction mixture to a final concentration of […], and subjected to a preparation of an autoradiogram by the same procedures as described above.
In the figure, Pol, Pfu, and Taq show the results for the DNA polymerase of the present invention, the Pfu DNA polymerase and the Taq DNA polymerase, respectively. In addition, 1, 2, 3, and 4 each indicates reaction time (min). In the figure, the representation “−” and “+” show the results obtained in the absence and in the presence, respectively, of the activated DNA. The lanes G, A, T, and C at the left end of the figure also show the results of electrophoresis of the reaction products obtained by a chain termination reaction by the dideoxy method using the same substrate as above, which were used to estimate the length of each extension product.

B1: Pfu DNA Polymerase: α-type DNA polymerase derived from Pyrococcus furiousus, manufactured by Stratagene (protein, UniProt P61875 1-775, looked up)
DNA polymerase: MILDVDYITEEGKPVIRLFKKENGKFKIEHDRTFRPYIYALLRDDSKIEEVKKITGERHGKIVRIVDVEKVEKKFLGKPITVWKLYLEHPQDVPTIREKVREHPAVVDIFEYDIPFAKRYLIDKGLIPMEGEEELKILAFDIETLYHEGEEFGKGPIIMISYADENEAKVITWKNIDLPYVEVVSSEREMIKRFLRIIREKDPDIIVTYNGDSFDFPYLAKRAEKLGIKLTIGRDGSEPKMQRIGDMTAVEVKGRIHFDLYHVITRTINLPTYTLEAVYEAIFGKPKEKVYADEIAKAWESGENLERVAKYSMEDAKATYELGKEFLPMEIQLSRLVGQPLWDVSRSSTGNLVEWFLLRKAYERNEVAPNKPSEEEYQRRLRESYTGGFVKEPEKGLWENIVYLDFRALYPSIIITHNVSPDTLNLEGCKNYDIAPQVGHKFCKDIPGFIPSLLGHLLEERQKIKTKMKETQDPIEKILLDYRQKAIKLLANSFYGYYGYAKARWYCKECAESVTAWGRKYIELVWKELEEKFGFKVLYIDTDGLYATIPGGESEEIKKKALEFVKYINSKLPGLLELEYEGFYKRGFFVTKKRYAVIDEEGKVITRGLEIVRRDWSEIAKETQARVLETILKHGDVEEAVRIVKEVIQKLANYEIPPEKLAIYEQITRPLHEYKAIGPHVAVAKKLAAKGVKIKPGMVIGYIVLRGDGPISNRAILAEEYDPKKHKYDAEYYIENQVLPAVLRILEGFGYRKEDLRYQKTRQVGLTSWLNIKKS
strand length of DNA amplifiable by PCR (λ-DNA): at most 3 kbp
Relative Activity ([1]; substrate M13-HT primer, activated DNA = 100): 23
Relative Activity ([1]; substrate M13-RNA primer, activated DNA = 100): 0.49
Relative Activity ([1]; substrate activated DNA (defined as 100)): 100
Relative Activity ([1]; substrate poly dA-Oligo dT, activated DNA = 100): 390
Relative Activity ([1]; substrate thermal-denatured DNA, activated DNA = 100): 87
inhibition of primer extension by activated DNA as competitor substrate (M13-HT Primer): strongly inhibited
